Data published in paper PMC7062751.

Legend:
free SUMO1 = free SUMO1 (UniProt P63165); test: pull-down (IP: TEX264-GFP) with immunoblot, quantified band ratio; conditions: purified GFP-tagged TEX264 incubated with free SUMO1; parent: 1
[1] = target: TEX264^SIM2*-FLAG (SIM2-mutated variant) (UniProt Q9Y6I9); test: co-IP; tandem affinity purification from ΔTEX264 HEK293 co-expressing FLAG-tagged TEX264 and HA-SUMO1: FLAG IP under native conditions, then anti-HA IP after boiling in 1% SDS; eluates probed for TOP1
Sequence of UniProt Q9Y6I9 (Q9Y6I9 whole entry, stated change not applied): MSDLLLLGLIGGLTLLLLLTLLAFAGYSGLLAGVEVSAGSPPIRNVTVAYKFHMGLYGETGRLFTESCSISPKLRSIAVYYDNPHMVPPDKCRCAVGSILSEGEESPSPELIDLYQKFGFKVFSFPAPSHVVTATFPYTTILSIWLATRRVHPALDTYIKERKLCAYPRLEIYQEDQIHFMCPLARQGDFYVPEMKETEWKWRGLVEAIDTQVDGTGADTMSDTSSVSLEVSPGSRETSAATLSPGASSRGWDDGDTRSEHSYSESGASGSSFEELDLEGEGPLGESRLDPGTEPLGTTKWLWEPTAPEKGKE

Sequence of UniProt P63165 (P63165 1-97): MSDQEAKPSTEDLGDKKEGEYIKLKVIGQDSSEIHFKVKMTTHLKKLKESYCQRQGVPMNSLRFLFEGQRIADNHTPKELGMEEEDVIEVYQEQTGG

ratio to parent (free SUMO1) | percent less co-immunoprecipitated than with TEX264^WT [1] | Substance
0 |  | GFP-tagged TEX264, wild type (from UniProt Q9Y6I9) SIM2*
 | 70% | SUMO1-modified TOP1 (HA-SUMO1 conjugated to endogenous TOP1) (from UniProt P11387 1-765; P63165 1-97)
0.25 |  | GFP-tagged TEX264, wild type (from UniProt Q9Y6I9) SIM1*
